Measurements published in paper doi:10.1101/2022.01.19.476892 (bioRxiv, 2022).

Experiments:
[1] = molecular target: T1, SARS-CoV-2 WT RBD protein (residues 319-541) (SARS-CoV-2, UniProt P0DTC2); experiment: SPR
[2] = molecular target: T1, SARS-CoV-2 WT RBD protein (residues …); experiment: ELISA
RBD protein of SARS-CoV [3] = molecular target: T2, RBD protein of SARS-CoV (Severe acute respiratory syndrome …, UniProt P59594); experiment: SPR
RBD protein of SARS-CoV [4] = molecular target: T2, RBD protein of SARS-CoV; experiment: cell-based or functional assay

Binder	binding result [1]	further results
EY6A (antibody, V domains shown) VH: EVQLVESGGGVVQPGRSLRLSCAASAFTFSSYDMHWVRQAPGKGLEWVAVISYDGSNKYYADSVKGRFTISRDNSKNTLYLQMNSLRAEDTAVYYCAKDGGKLWVYYFDYWGQGTLVTVSS VL: not shown	binds	
S2X35 (antibody, V domains shown) VH: QVQLVQSGAEVKKPGASVKVSCKASGYTFTNYGISWVRQAPGQGLEWMGWISAYKGNTNYAQKLQGRVTMTTDTSTSTAYMELRSLRSDDTAVYYCARPDYQVLGYDFWIGYYGMDVWGQGTTVIVSS VL: QSVLTQPPSVSGAPGQRVTISCTGSSSNIGAGYDVHWYQQLPGTAPKLLIYGNTNRPSGVPDRFSGSKSGTSASLAITGLQAEDEADYYCQSYDSSLSGSEVVFGGGTKLTVL	binds	
C022 (antibody, V domains shown) VH: QVQLQESGPGLVKPSETLSVTCTVSGGSISSSRYYWGWIRQPPGKGLEWIGSIYYSGSTYYNPSLKSRVTISVDTSKNQFSLKLSSVTAADTAVYYCARHAAAYYDRSGYYFIEYFQHWGQGTLVTVSS VL: DIQMTQSPSTLSASVGDSVTITCRASQSISSWLAWYQQKPGKAPKLLIYKASSLESGVPSRFSGSGSGTEFTLTISSLQPDDFATYYCQQYNNYRYTFGQGTKLEIK	binds	
VacW-209 (antibody, V domains shown) VH: QVQLVESGGGVVQPGRSLRLSCAASGFTFSSIAMHWVRQAPGKGLEWVAVMSFDGSIKYYGDSVKGRFTISRDNSKSTLYLQMNSLRAEDTAVYYCARGVQGYYDRSGYYNLDYNYGMDVWGQGTTVTVSS VL: QSVLTQPPSVSGAPGQRVTISCTGSSSNIGAGYDVHWYQQLPGTAPKLLIYGNSNRPSGVPDRFSGSKSGTSASLAITGLQAEDEADYYCQSYDSSLSGWVFGGGTKLTVL		binding result [2]: binds; Kd (RBD protein of SARS-CoV [3]): 0.54 nM; IC50 of neutralisation of SARS-CoV pseudovirus (HEK-293T-hACE2 cells) (RBD protein of SARS-CoV [4]): 0.141 µg/mL
C118 (antibody, V domains shown) VH: QVQLVESGGGVVQPGRSLRLSCAASGFTFSNYAMHWVRQAPGKGLEWVAVISYDGSNKYYADSVKGRFTISRDNSKNTLYLQMNSLRAEDTAIYYCASGYTGYDYFVRGDYYGLDVWGQGTTVTVSS VL: QPVLTQSPSASASLGASVKLTCTLSSGHSSYAIAWHQQQPEKGPRYLMKLNTDGSHSKGDGIPDRFSGSSSGAERYLTISSLQSEDEADYYCQTWGTGILVFGGGTKLTVL	binds	
H014 (antibody, V domains shown) VH: EVQLVQSGAEVKKPGATVKISCKVSGYSFSNYYIHWVKQAPGKSLEWIGYIDPFNGGTSDNLKFKGAATLTADTSTDTAYMELSSLRSEDTAVYYCARSEYDPYYVMDYWGQGTTVTVSS VL: IVLTQSPFQSVSPKEKVTITCRASQSISSNLHWYQQKPDQSPKLLIKYASQSISGIPSRFSGSGSGTDFTLTINSLEAEDFGIYFCQQTNFWPYIFGQGTKLEIL	binds	
